# Laboratory results: patent publication US20030148973A1 (published 2003)
# Molecular target: T1, HLA-A0201 molecules on the surface of T2 cells
# T1 construct: whole, on cells; Empty (peptide-stripped) HLA-A0201 on T2 cells; also called HLA-A2
# Assay: T2 cell HLA-A0201 stabilization; 20 µg peptide on 10^6 acid-stripped T2 cells, BB7.2 staining, flow cytometry
# Description: Subsequent dissociation of peptides from the HLA class 1 MHC molecules results in the loss of BB7.2 monoclonal antibody binding.
# In order to determine whether the identified nonapeptides can be presented by HLA-A0201, T2 cells were propagated in RPMI complete medium (RPMI medium supplemented with 10% heat-inactivated bovine serum, 120.0 units per ml of penicillin G sodium, 120 μg per ml of streptomycin sulphate, and 0.35 mg per ml of L-glutamine). The ability of MAGE-A1 derived peptides to bind and stabilize surface HLA-A0201 molecules on T2 cells was determined utilizing a standard protocol (Deng, Y. (1997) J Immunol 158:1507-1515). The required number of T2 flasks were incubated overnight at 26° C. serum-free culture medium (RPMI medium supplemented with 120.0 units per ml of penicillin G sodium and 0.35 mg per ml of L-glutamine). The next day, cells were washed with RPMI medium (without bovine serum) and then resuspended in denaturing solution (300 mM Glycine in 1% BSA, pH 2.5) for 3 min, in order to strip the existing HLA A2 molecules of endogenous peptide. The stripped T2 cells were washed at once in an excess of RPMI media (without bovine serum) to neutralize the acidic stripping solution. To load the peptide of interest into the HLA-A2 peptide binding groove, 20 μg of specific peptide was pulsed onto 10⁶ denatured T2 cells in 2 ml peptide loading media (RPMI medium supplemented with 120.0 units per ml of penicillin G sodium; 0.35 mg per ml of L-glutamine; 1× sodium pyruvate; 1× non-essential amino acids; 1×2-mercapto-ethanol) for 4 hours at 26° C. The cells were washed in cold 1% BSA in PBS and resuspended in 100 μl of cold 1% BSA in PBS to prevent MHC protein turn over. […] The binding of BB7.2 was detected via the addition of 1.0 μg per test of goat anti-mouse IgG-Fc fluorescein (FITC) conjugate (BETHYL Laboratories Inc). […] The samples were then analyzed by Flow Cytometry, and the results were expressed in units of Fluorescence Index (FI), calculated by the equation: […]
row,Fluorescence Index (FI),Binder
1,0.52 FI,LQLVFGIDV (also called Peptide # 3) [MAGE-A1 151]
2,1.61 FI,SAYGEPRKL (also called Peptide # 14) [MAGE-A1 230]
3,2.18 FI,KVLEYVIKV (also called Peptide # 1) [MAGE-A1 278]
